The record followed here is PMC10592355.

Usually Kd stands for the constant that tells how readily two partners part at equilibrium.

For data set [1], the system named is TyrRS K244Q (Homo sapiens). The data set is described as follows: filter binding. To be noted: Filter binding: 10 mM HEPES pH 7.5, 4 mM KCl, 0.02 mg/mL BSA, 0.2 mM DTT, 30 min RT, TyrRS 125 nM to 8 uM, wash 60 mM HEPES pH 7.5, 10 mM MgCl2; EMSA …. Background: In EMSA bound probe runs differently from free probe, usually more slowly.
The test system of the next data set is TyrRS WT (Homo sapiens). Nature of the data set: filter binding. To be noted: Filter binding: 10 mM HEPES pH 7.5, 4 mM KCl, 0.02 mg/mL BSA, 0.2 mM DTT, 30 min RT, TyrRS 125 nM to 8 uM, wash 60 mM HEPES pH 7.5, 10 mM MgCl2; EMSA ….

Turning to human tRNATyr transcript, the values for the Kd (in data set [1]; with TyrRS WT (Homo sapiens)) were 1180 nM and 849 nM, respectively.
